Source: US20230023414A1, “METHODS AND DEVICES FOR TREATING A DISEASE WITH BIOTHERAPEUTICS” (PROGENITY, INC., priority 2018, published 2023)
Values joined by “and” are separate entries in the source; they are usually repeats but may differ in a detail not shown here. Equal entries are not always repeated. Where two headings read alike, the source gives them in different places. Marks after values point to notes of the source that are not given here.

Legend:
[1] = cited from earlier work; for Baseline dose: Bioavail.: dose info for non-approved agents from clinical trial information
[2] = pig, in vivo; for (AUC)T0-T240 h ± SEM / Tmax: 1.2 mg
[3] = Pharmacokinetics (blood insulin) of regular human insulin (NOVOLIN R) after subcutaneous or intra-jejunal jet delivery in swine; format: in vivo, Yorkshire female swine; settings: for Cmax / Tmax: blood insulin
Method: (§1) A total of 18 Yorkshire female swine in good health and weighing 60-70 kg each were included in this study. Swine were divided into two groups with 9 animals per group. […] A sham surgical laparotomy was performed. […] The jet delivery device was configured with the single nozzle in an axial orientation.
Swine were divided into two groups with 9 animals per group. […] In all 18 animals, a laparotomy procedure was performed to expose the abdominal cavity. Animals remained under anesthesia during the entire procedure for the PK/PD study.
For the laparotomy in group 02, a small segment of the jejunal mucosa and serosa was exposed by midline laparotomy and the jet delivery device was inserted through antimesenteric incision.
(§2) Blood samples were kept on wet ice until centrifugation and separation of plasma. […] Glucose was monitored every five (5) minutes during the study by portable glucose analyzer (StatStrip (SS) hospital glucose monitoring system (Nova Biomedical, Waltham, Mass.)). At each time point, approximate 0.1 mL of blood was drawn and immediately placed on a glucose monitoring test strip, and the whole blood glucose concentration was measured by the SS in triplicate.
The animals were anesthetized for the entire ECP.

blood glucose = assay: Euglycemic clamp procedure: blood glucose and dextrose infusion after NOVOLIN R SC or IJ in swine; format: in vivo, Yorkshire female swine; settings: for mean blood glucose level: euglycemic clamp, swine
Method: as §1, with “orientation. The device was held in place during the laparotomy insertion, and the nozzle outlet was directed to face the jejunal wall to direct the jet of the NOVOLIN® R to the GI tract.” for “orientation.”
as §2
A euglycemic clamp procedure (ECP) was employed to compare pharmacokinetics and pharmacodynamics of regular human Insulin (NOVOLIN® R) delivered subcutaneously (SC) in the neck versus intra-jejunally (IJ) by the jet delivery device in the small intestine. ECP was used to quantify the amount of glucose required to maintain normoglycemia after exogenous bolus of insulin. […] The animals were anesthetized for the entire ECP.

[4] = cited from earlier work
[5] = IJ administration by jet delivery device, swine, Average
[6] = IJ administration by jet delivery device, swine, individual animals
[7] = SC administration, swine, Average
[8] = SC administration, swine, individual animals

Molecule: CC[C@H](C)[C@H](NC(=O)[C@H](Cc1ccccc1)NC(=O)[C@H](CCC(=O)O)NC(=O)[C@H](CCCCNC(=O)COCCOCCNC(=O)COCCOCCNC(=O)CC[C@H](NC(=O)CCCCCCCCCCCCCCCCC(=O)O)C(=O)O)NC(=O)[C@H](C)NC(=O)[C@H](C)NC(=O)[C@H](CCC(N)=O)NC(=O)CNC(=O)[C@H](CCC(=O)O)NC(=O)[C@H](CC(C)C)NC(=O)[C@H](Cc1ccc(O)cc1)NC(=O)[C@H](CO)NC(=O)[C@H](CO)NC(=O)[C@@H](NC(=O)[C@H](CC(=O)O)NC(=O)[C@H](CO)NC(=O)[C@@H](NC(=O)[C@H](Cc1ccccc1)NC(=O)[C@@H](NC(=O)CNC(=O)[C@H](CCC(=O)O)NC(=O)C(C)(C)NC(=O)[C@@H](N)Cc1cnc[nH]1)[C@@H](C)O)[C@@H](C)O)C(C)C)C(=O)N[C@@H](C)C(=O)N[C@@H](Cc1c[nH]c2ccccc12)C(=O)N[C@@H](CC(C)C)C(=O)N[C@H](C(=O)N[C@@H](CCCNC(=N)N)C(=O)NCC(=O)N[C@@H](CCCNC(=N)N)C(=O)NCC(=O)O)C(C)C [Semaglutide]
- Approved Dosing Info: Bio Avail ([1]; SC administration): 89%

Molecule: CC[C@H](C)[C@H](NC(=O)[C@H](CCC(=O)O)NC(=O)[C@H](CO)NC(=O)[C@@H](NC(=O)[C@@H](N)CO)C(C)C)C(=O)N[C@@H](CCC(N)=O)C(=O)N[C@@H](CC(C)C)C(=O)N[C@@H](CCSC)C(=O)N[C@@H](Cc1cnc[nH]1)C(=O)N[C@@H](CC(N)=O)C(=O)N[C@@H](CC(C)C)C(=O)NCC(=O)N[C@@H](CCCCN)C(=O)N[C@@H](Cc1cnc[nH]1)C(=O)N[C@@H](CC(C)C)C(=O)N[C@@H](CC(N)=O)C(=O)N[C@@H](CO)C(=O)N[C@@H](CCSC)C(=O)N[C@@H](CCC(=O)O)C(=O)N[C@@H](CCCN=C(N)N)C(=O)N[C@H](C(=O)N[C@@H](CCC(=O)O)C(=O)N[C@@H](Cc1c[nH]c2ccccc12)C(=O)N[C@@H](CC(C)C)C(=O)N[C@@H](CCCN=C(N)N)C(=O)N[C@@H](CCCCN)C(=O)N[C@@H](CCCCN)C(=O)N[C@@H](CC(C)C)C(=O)N[C@@H](CCC(N)=O)C(=O)N[C@@H](CC(=O)O)C(=O)N[C@H](C(=O)N[C@@H](Cc1cnc[nH]1)C(=O)N[C@@H](CC(N)=O)C(=O)N[C@@H](Cc1ccccc1)C(=O)O)C(C)C)C(C)C [teriparatide]
- Approved Dosing Info: Bio Avail ([1]; SC administration): 95%

Molecule: Dulaglutide: long-acting GLP-1 receptor agonist, about 63 kDa; GLP-1 analogue linked to modified human IgG4 Fc; TRULICITY solution 3 mg/mL
- AUCID (±SEM) [2]: 3890.00 ± 94.73 ng·h/mL
- Bioavailability relative to SC [2]: 49.11 ± 0.08% ^a
- (AUC)T0-T240 h ± SEM [2]: 4355.86 ± 1094.57 ^a ng · hr/mL
- Tmax [2]: 8 h
- Bioavailability relative to IV ([2]; iv): 100%
- (AUC)T0-T240 h ± SEM ([2]; iv): 16429.33 ± 600.93 ng·h/mL
- Tmax ([2]; iv): 1 h
- Bioavailability relative to SC ([2]; sc): 100%
- (AUC)T0-T240 h ± SEM ([2]; sc): 8869 ± 887.33 ng·h/mL
- Tmax ([2]; sc): 6 h
- Approved Dosing Info: Bio Avail ([1]; SC administration): 65%

Molecule: Novolin® R: regular human insulin (recombinant), aqueous solution 100 units/mL with glycerol, metacresol, zinc chloride, pH 7.4
- blood insulin level ([3]; animal 18P18, SC administration group): significantly higher than the rest of the animals in the group
- Cmax [3, 5]: 77.40 uIU/mL
- Tmax [3, 5]: 55.63 min
- Cmax [3, 6]: 40.93 uIU/mL and 96.77 uIU/mL and 5.03 uIU/mL and 7.96 uIU/mL and 48.77 uIU/mL and 85.38 uIU/mL and 207.96 uIU/mL and 126.39 uIU/mL
- Tmax [3, 6]: 20 min and 50 min and 90 min (2×) and 40 min (3×)
- Cmax [3, 7]: 202.94 uIU/mL
- Tmax [3, 7]: 87.14 min
- Cmax [3, 8]: 451.00 uIU/mL and 60.74 uIU/mL and 354.00 uIU/mL and 356.60 uIU/mL and 65.71 uIU/mL and 59.18 uIU/mL and 73.34 uIU/mL
- Tmax [3, 8]: 50 min (2×) and 180 min and 105 min and 30 min and 120 min
- time to maximum plasma concentration (Tmax) ([3]; jejunum administration group): 0.9272 h
- time to maximum plasma concentration (Tmax) ([3]; subcutaneous administration group): 1.452 h
- maximum plasma concentration Cmax, SC group versus IJ group ([3]; swine): higher than that of the IJ administration group
- AUC of blood insulin, SC group versus IJ group ([3]; swine, AUC0-420 min): higher than that of the IJ administration group
- mean dextrose infusion rate, IJ versus SC group (blood glucose; 75 minutes to 420 minutes post-administration): higher in the SC administration group
- mean blood glucose level (blood glucose; IJ administration group (jet delivery device)): 89.6 mg/dL
- mean blood glucose level (blood glucose; SC administration group): 83.5 mg/dL
- mean dextrose infusion rate, IJ versus SC group (blood glucose; first 70 minutes after administration): higher in the IJ administration group

Molecule: alirocumab
- Approved Dosing Info: Bio Avail ([1]; SC administration): 85%

Molecule: certolizumab pegol
- Approved Dosing Info: Bio Avail ([1]; SC administration): 80%

Molecule: dalteparin
- stability at room temperature [4]: stable at room temperature
- bioavailability by SC injection ([1]; SC injection): approximately 87%
- half-life ([1]; in vivo): 3 to 5 h

Molecule: denosumab
- Approved Dosing Info: Bio Avail ([1]; SC administration): 61%

Molecule: etanercept
- Approved Dosing Info: Bio Avail ([1]; SC administration): 58%

Molecule: glucagon (SC)
- Baseline dose: Bioavail. ([1]; SC administration): 100.0%

Molecule: golimumab
- Approved Dosing Info: Bio Avail ([1]; SC administration): 51%

Molecule: natalizumab
- Approved Dosing Info: Bio Avail ([1]; IV administration): 100%

Molecule: sargramostim
- Approved Dosing Info: Bio Avail ([1]; IV administration): 100%

Molecule: secukinumab
- Approved Dosing Info: Bio Avail ([1]; SC administration): 73%

Molecule: somatropin
- Baseline dose: Bioavail. ([1]; SC administration): 80.5%

Molecule: tocilizumab
- Approved Dosing Info: Bio Avail ([1]; SC administration): 80%

Molecule: ustekinumab
- Approved Dosing Info: Bio Avail ([1]; SC administration): 78%

Molecule: vedolizumab
- Approved Dosing Info: Bio Avail ([1]; IV administration): 100%
